Assay results from publication PMC8855783.

Experiments:
NBD P9 PAI-1 = NBD P9 PAI-1 (UniProt P05121)
wild-type PAI-1 (human) [1] = molecular target: wild-type PAI-1 (human) (UniProt P05121)
wild-type PAI-1 (human) [2] = molecular target: wild-type PAI-1 (human) (UniProt P05121); remark: listed apart in the source
wild-type PAI-1 (human) [3] = molecular target: wild-type PAI-1 (human) (UniProt P05121); remark: listed apart in the source

Question: How did the Km ([PA] at half-saturation) of RCL insertion, no Nb, −Vn (NBD P9 PAI-1) turn out when “two-chain tissue-type plasminogen activator (enzyme)” was run?
Answer: 0.22 µM

Question: What about the Km of RCL insertion, with Nb42, −Vn (NBD P9 PAI-1) of the same molecule?
Answer: 1.2 µM

Question: What about the Km of RCL insertion, with Nb42 and Nb64, −Vn (NBD P9 PAI-1) of the same molecule?
Answer: 1.4 µM

Question: And the Km of RCL insertion, with Nb64, −Vn (NBD P9 PAI-1)?
Answer: 0.17 µM

Question: What about the klim of RCL insertion (stopped-flow NBD fluorescence), no Nb, −Vn (NBD P9 PAI-1) of the same molecule?
Answer: 1.5 s⁻¹

Question: And the klim of RCL insertion, with Nb42 and Nb64, −Vn (NBD P9 PAI-1)?
Answer: 5.2 s⁻¹

Question: What about the klim of RCL insertion, with Nb64, −Vn (NBD P9 PAI-1) of the same molecule?
Answer: 1.4 s⁻¹

Question: What about the klim/Km of RCL insertion, with Nb42 and Nb64, +Vn ((μmol/ L)^−1 s^−1) (NBD P9 PAI-1) of the same molecule?
Answer: 1.1

Question: What about the SI by SDS-PAGE, with Nb42, +Vn (wild-type PAI-1 (human) [1]) of the same molecule?
Answer: 1

Question: And the SI by SDS-PAGE, with Nb42, −Vn (wild-type PAI-1 (human) [1])?
Answer: 1.1

Question: And the SI by SDS-PAGE, with Nb42 and Nb64, +Vn (wild-type PAI-1 (human) [1])?
Answer: > 30

Question: And the SI by SDS-PAGE, with Nb42 and Nb64, −Vn (wild-type PAI-1 (human) [1])?
Answer: 16.9

Question: What about the SI by SDS-PAGE, with Nb64, +Vn (wild-type PAI-1 (human) [1]) of the same molecule?
Answer: > 30

Question: What about the SI by SDS-PAGE, with Nb64, −Vn (wild-type PAI-1 (human) [1]) of the same molecule?
Answer: 15.6

Question: What about the stoichiometry of inhibition (SI) by SDS-PAGE, no Nb, −Vn (wild-type PAI-1 (human) [1]) of the same molecule?
Answer: 1.1

Question: What does the source list for “two-chain urokinase-type plasminogen activator (enzyme)”?
Answer: klim/Km of RCL insertion, no Nb, −Vn ((μmol/ L)^−1 s^−1) (NBD P9 PAI-1): 11.3; klim/Km of RCL insertion, with Nb64, −Vn ((μmol/ L)^−1 s^−1) (NBD P9 PAI-1): 14.7; SI by SDS-PAGE, no Nb, −Vn (wild-type PAI-1 (human) [1]): 1.1; SI by SDS-PAGE, with Nb42, +Vn (wild-type PAI-1 (human) [1]): 1.1; SI by SDS-PAGE, with Nb42, −Vn (wild-type PAI-1 (human) [1]): 1.2; SI by SDS-PAGE, with Nb42 and Nb64, −Vn (wild-type PAI-1 (human) [1]): 12.4; SI by SDS-PAGE, with Nb64, +Vn (wild-type PAI-1 (human) [1]): 10; SI by SDS-PAGE, with Nb64, −Vn (wild-type PAI-1 (human) [1]): 27; percent substrate reaction by SDS-PAGE, with Nb64, +Vn (wild-type PAI-1 (human) [2]): 90%; percent substrate reaction by SDS-PAGE, with Nb64, −Vn (wild-type PAI-1 (human) [2]): 96%

B1: VHH-2g-42 (VHH)
VHH: QVQLVESGGGLVQPGGRLRLSCAASGFTFRTYAMQWYRQSPGTERELVAAISNIGGVTDYGDSVKGRFTISRDNAKTTVYLEMNSLKPEDTATYYCSAVRLPQRYWGRGTQVTVSS
Question: With B1 as the molecule, how does the IC50 of inhibition of PAI-1-wt activity, PAI-1/tPA, −Vn (wild-type PAI-1 (human) [3]) read?
Answer: 87 nM

B2: VHH-2w-64 (VHH)
VHH: QVQLVESGGGLVQAGGSLRLSCAASGFTFDDYSIAWFRQAPGKEREGVSCISSSDGSAYYADSVKGRFTISSDNAKNTVYLQMNSLKPEDTAVYYCAAVWARVCRNPYDYWGQGTQVTVSS
Question: What does the source list for B2?
Answer: IC50 of inhibition of PAI-1-wt activity, PAI-1/tPA, −Vn (wild-type PAI-1 (human) [3]): 16 nM; IC50 of inhibition of PAI-1-wt activity, PAI-1/uPA, −Vn (wild-type PAI-1 (human) [3]): 4.6 nM; IC50 of inhibition of the activity of Vn-bound PAI-1-wt, PAI-1/tPA (wild-type PAI-1 (human) [3]): 2.8 nM; IC50 of inhibition of the activity of Vn-bound PAI-1-wt, PAI-1/uPA (wild-type PAI-1 (human) [3]): 2 nM; maximum inhibition of PAI-1-wt activity, PAI-1/uPA, −Vn (wild-type PAI-1 (human) [3]): 88%; maximum inhibition of the activity of Vn-bound PAI-1-wt, PAI-1/tPA (wild-type PAI-1 (human) [3]): 93%
